The values that follow come from the supplement of paper PMC5998384.

The test system of data set [1] is HeLa Kyoto. Briefly: solubility in G1/S (NP-40 vs SDS abundance) (log2 ratio); higher = more soluble. Particulars: cell cycle stage: G1/S.
For data set [2], the system named is HeLa Kyoto. Briefly: solubility change mitosis vs G1/S (difference of NP-40 vs SDS log2 ratios) (log2 ratio difference); higher = more soluble in mitosis.
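Throughout, for solubility change mitosis vs G1/S (difference of NP-40 vs SDS log2 ratios): synchronized HeLa Kyoto cells (double thymidine block for G1/S, nocodazole release for mitosis), protein amounts in NP-40 versus SDS lysates quantified by mass spectrometry, three biological replicates.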
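Throughout, for solubility in G1/S (NP-40 vs SDS abundance): HeLa Kyoto cells arrested at G1/S by double thymidine block, proteins quantified by TMT10plex mass spectrometry in mild NP-40 versus SDS extracts, three biological replicates.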

With “MADAAATAGAGGSGTRSGSKQSTNPADNYHLARRRTLQVVVSSLLTEAGFESAEKASVETLTEMLQSYISEIGRSAKSYCEHTARTQPTLSDIVVTLVEMGFNVDTLPAYAKRSQRMVITAPPVTNQPVTPKALTAGQNRPHPPHIPSHFPEFPDPHTYIKTPTYREPVSDYQVLREKAASQRRDVERALTRFMAKTGETQSLFKDDVSTFPLIAARPFTIPYLTALLPSELEMQQMEETDSSEQDEQTDTENLALHISMEDSGAEKENTSVLQQNPSLSGSRNGEENIIDNPYLRPVKKPKIRRKKSLS [TAF8]”, the “solubility in G1/S (log2)” value with HeLa Kyoto [1] was 0.116. The “solubility change mitosis (log2)” value in the data set on HeLa Kyoto [2] stood at 0.0206.
“MADSAELKQMVMSLRVSELQVLLGYAGRNKHGRKHELLTKALHLLKAGCSPAVQMKIKELYRRRFPQKIMTPADLSIPNVHSSPMPATLSPSTIPQLTYDGHPASSPLLPVSLLGPKHELELPHLTSALHPVHPDIKLQKLPFYDLLDELIKPTSLASDNSQRFRETCFAFALTPQQVQQISSSMDISGTKCDFTVQVQLRFCLSETSCPQEDHFPPNLCVKVNTKPCSLPGYLPPTKNGVEPKRPSRPINITSLVRLSTTVPNTIVVSWTAEIGRNYSMAVYLVKQLSSTVLLQRLRAKGIRNPDHSRALIKEKLTADPDSEIATTSLRVSLLCPLGKMRLTIPCRALTCSHLQCFDATLYIQMNEKKPTWVCPVCDKKAPYEHLIIDGLFMEILKYCTDCDEIQFKEDGTWAPMRSKKEVQEVSASYNGVDGCLSSTLEHQVASHHQSSNKNKKVEVIDLTIDSSSDEEEEEPSAKRTCPSLSPTSPLNNKGILSLPHQASPVSRTPSLPAVDTSYINTSLIQDYRHPFHMTPMPYDLQGLDFFPFLSGDNQHYNTSLLAAAAAAVSDDQDLLHSSRFFPYTSSQMFLDQLSAGGSTSLPTTNGSSSGSNSSLVSSNSLRESHSHTVTNRSSTDTASIFGIIPDIISLD [PIAS1]”: in the data set with HeLa Kyoto [1], the “solubility in G1/S (log2)” value was -0.461. Further, in the data set on HeLa Kyoto [2], the “solubility change mitosis (log2)” value is 0.113.
In the same order, the values of “MADSERLSAPGCWAACTNFSRTRKGILLFAEIILCLVILICFSASTPGYSSLSVIEMILAAIFFVVYMCDLHTKIPFINWPWSDFFRTLIAAILYLITSIVVLVERGNHSKIVAGVLGLIATCLFGYDAYVTFPVRQPRHTAAPTDPADGPV [PLP2]” are -0.0955 and -0.163.
In the same order, the values of “MADSSGRGAGKPATGPTNSSSAKKKDKRVQGGRVIESRYLQYEKKTTQKAPAGDGSQTRGKMSEGGRKSSLLQKSKADSSGVGKGDLQSTLLEGHGTAPPDLDLSAINDKSIVKKTPQLAKTISKKPESTSFSAPRKKSPDLSEAMEMMESQTLLLTLLSVKMENNLAEFERRAEKNLLIMCKEKEKLQKKAHELKRRLLLSQRKRELADVLDAQIEMLSPFEAVATRFKEQYRTFATALDTTRHELPVRSIHLEGDGQQLLDALQHELVTTQRLLGELDVGDSEENVQVLDLLSELKDVTAKKDLELRRSFAQVLELSAEASKEAALANQEVWEETQGMAPPSRWYFNQDSACRESGGAPKNTPLSEDDNPGASSAPAQATFISPSEDFSSSSQAEVPPSLSRSGRDLS [HAUS8]” are 0.514 and 0.189.
Taken in the same sequence, the figures for “MADVEDGEETCALASHSGSSGSKSGGDKMFSLKKWNAVAMWSWDVECDTCAICRVQVMDACLRCQAENKQEDCVVVWGECNHSFHNCCMSLWVKQNNRCPLCQQDWVVQRIGK [RNF7]” were -0.165 and -0.169.
“MADWARAQSPGAVEEILDRENKRMADSLASKVTRLKSLALDIDRDAEDQNRYLDGMDSDFTSMTSLLTGSVKRFSTMARSGQDNRKLLCGMAVGLIVAFFILSYFLSRART [BET1L]”: in the data set on HeLa Kyoto [1], the “solubility in G1/S (log2)” value is -0.104. Moreover, the “solubility change mitosis (log2)” value in the data set on HeLa Kyoto [2] was 0.0489.
Taken in the same sequence, the figures for “MAEAVERTDELVREYLLFRGFTHTLRQLDAEIKADKEKGFRVDKIVDQLQQLMQVYDLAALRDYWSYLERRLFSRLEDIYRPTIHKLKTSLFRFYLVYTIQTNRNDKAQEFFAKQATELQNQAEWKDWFVLPFLPSPDTNPTFATYFSRQWADTFIVSLHNFLSVLFQCMPVPVILNFDAECQRTNQVQEENEVLRQKLFALQAEIHRLKKEEQQPEEEEALVQHKLPPYVSNMDRLGDSELAMVCSQRNASLSQSPRVGFLSSLLPQSKKSPSRLSPAQGPPQPQSSAKKESFGGQGTKGKDPTSGAKDGKSLLSGLATGESGWSQHRQRRLQDHGKERKELFSTTTSQCAEKKPEASGPEAEPCPELHTEPVEPLTRASSAGPEGGGVRPEQPFIVLGQEEYGEHHSSIMHCRVDCSGRRVASLDVDGVIKVWSFNPIMQTKASSISKSPLLSLEWATKRDRLLLLGSGVGTVRLYDTEAKKNLCEININDNMPRILSLACSPNGASFVCSAAAPSLTSQVDFSAPDIGSKGMNQVPGRLLLWDTKTMKQQLQFSLDPEPIAINCTAFNHNGNLLVTGAADGVIRLFDMQQHECAMSWRAHYGEVYSVEFSYDENTVYSIGEDGKFIQWNIHKSGLKVSEYSLPSDATGPFVLSGYSGYKQVQVPRGRLFAFDSEGNYMLTCSATGGVIYKLGGDEKVLESCLSLGGHRAPVVTVDWSTAMDCGTCLTASMDGKIKLTTLLAHKA [WDR91]” were -0.122 and 0.0607.
As to “MAEEVSTLMKATVLMRQPGRVQEIVGALRKGGGDRLQVISDFDMTLSRFAYNGKRCPSSYNILDNSKIISEECRKELTALLHHYYPIEIDPHRTVKEKLPHMVEWWTKAHNLLCQQKIQKFQIAQVVRESNAMLREGYKTFFNTLYHNNIPLFIFSAGIGDILEEIIRQMKVFHPNIHIVSNYMDFNEDGFLQGFKGQLIHTYNKNSSACENSGYFQQLEGKTNVILLGDSIGDLTMADGVPGVQNILKIGFLNDKVEERRERYMDSYDIVLEKDETLDVVNGLLQHILCQGVQLEMQGP [NT5C3B]”, the “solubility in G1/S (log2)” value in the data set on HeLa Kyoto [1] came to 0.00588. Also, in the data set on HeLa Kyoto [2], the “solubility change mitosis (log2)” value was -0.136.
As to “MAEIIQERIEDRLPELEQLERIGLFSHAEIKAIIKKASDLEYKIQRRTLFKEDFINYVQYEINLLELIQRRRTRIGYSFKKDEIENSIVHRVQGVFQRASAKWKDDVQLWLSYVAFCKKWATKTRLSKVFSAMLAIHSNKPALWIMAAKWEMEDRLSSESARQLFLRALRFHPECPKLYKEYFRMELMHAEKLRKEKEEFEKASMDVENPDYSEEILKGELAWIIYKNSVSIIKGAEFHVSLLSIAQLFDFAKDLQKEIYDDLQALHTDDPLTWDYVARRELEIESQTEEQPTTKQAKAVEVGRKEERCCAVYEEAVKTLPTEAMWKCYITFCLERFTKKSNSGFLRGKRLERTMTVFRKAHELKLLSECQYKQLSVSLLCYNFLREALEVAVAGTELFRDSGTMWQLKLQVLIESKSPDIAMLFEEAFVHLKPQVCLPLWISWAEWSEGAKSQEDTEAVFKKALLAVIGADSVTLKNKYLDWAYRSGGYKKARAVFKSLQESRPFSVDFFRKMIQFEKEQESCNMANIREYYERALREFGSADSDLWMDYMKEELNHPLGRPENCGQIYWRAMKMLQGESAEAFVAKHAMHQTGHL [UTP6]”, in the data set on HeLa Kyoto [1], the “solubility in G1/S (log2)” value is -2.05. Besides, in the data set with HeLa Kyoto [2], the “solubility change mitosis (log2)” value stood at 0.707.
Taken in the same sequence, the figures for “MAELRQVPGGRETPQGELRPEVVEDEVPRSPVAEEPGGGGSSSSEAKLSPREEEELDPRIQEELEHLNQASEEINQVELQLDEARTTYRRILQESARKLNTQGSHLGSCIEKARPYYEARRLAKEAQQETQKAALRYERAVSMHNAAREMVFVAEQGVMADKNRLDPTWQEMLNHATCKVNEAEEERLRGEREHQRVTRLCQQAEARVQALQKTLRRAIGKSRPYFELKAQFSQILEEHKAKVTELEQQVAQAKTRYSVALRNLEQISEQIHARRRGGLPPHPLGPRRSSPVGAEAGPEDMEDGDSGIEGAEGAGLEEGSSLGPGPAPDTDTLSLLSLRTVASDLQKCDSVEHLRGLSDHVSLDGQELGTRSGGRRGSDGGARGGRHQRSVSL [SH3BP5L]” were 0.128 and -0.0461.
In the same order, the values of “MAELYVKPGNKERGWNDPPQFSYGLQTQAGGPRRSLLTKRVAAPQDGSPRVPASETSPGPPPMGPPPPSSKAPRSPPVGSGPASGVEPTSFPVESEAVMEDVLRPLEQALEDCRGHTRKQVCDDISRRLALLQEQWAGGKLSIPVKKRMALLVQELSSHRWDAADDIHRSLMVDHVTEVSQWMVGVKRLIAEKRSLFSEEAANEEKSAATAEKNHTIPGFQQAS [SRA1]” are 0.0612 and 0.9.
